# Reference: publication PMC7806715, “Discovery of small molecules targeting the tandem tudor domain of the epigenetic factor UHRF1 using fragment-based ligand discovery” (Scientific Reports, 2021)
# T1: FLAG-C-UHRF1 (containing SRA, RING E3 domains and PBR, aa 414–793) (UniProt Q96T88 414-793)
# T1 construct: UHRF1 C-terminal fragment with the SRA domain, PBR and RING domain, aa 414–793; Cloned into the vector pMCSG7; The methods mix the names His6-C-FLAG-UHRF1, FLAG-C-UHRF1 and C-FLAG-UHRF1; also called FLAG tagged-C-UHRF1; source: Rosetta (DE3) E. coli, purified (Nuvia IMAC, TEV protease digestion to remove the His-tag, second IMAC pass)
# T1 sequence (looked up): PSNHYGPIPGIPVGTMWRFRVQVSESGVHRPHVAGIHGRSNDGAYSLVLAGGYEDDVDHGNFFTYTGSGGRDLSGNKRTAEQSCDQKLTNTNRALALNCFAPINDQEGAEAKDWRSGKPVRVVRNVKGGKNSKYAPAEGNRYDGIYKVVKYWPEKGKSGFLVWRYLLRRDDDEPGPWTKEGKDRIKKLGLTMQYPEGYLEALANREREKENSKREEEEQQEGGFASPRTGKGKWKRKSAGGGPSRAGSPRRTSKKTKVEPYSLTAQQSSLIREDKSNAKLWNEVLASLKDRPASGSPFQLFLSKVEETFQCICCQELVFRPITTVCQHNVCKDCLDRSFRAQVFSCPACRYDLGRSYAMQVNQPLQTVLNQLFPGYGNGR
# B1: biotinylated-His-AviTag-N-UHRF1 (containing UBL and TTD, aa 1–285) (domain or fragment, UniProt Q96T88 1-285, looked up)
# chain: MWIQVRTMDGRQTHTVDSLSRLTKVEELRRKIQELFHVEPGLQRLFYRGKQMEDGHTLFDYEVRLNDTIQLLVRQSLVLPHSTKERDSELSDTDSGCCLGQSESDKSSTHGEAAAETDSRPADEDMWDETELGLYKVNEYVDARDTNMGAWFEAQVVRVTRKAPSRDEPCSSTSRPALEEDVIYHVKYDDYPENGVVQMNSRDVRARARTIIKWQDLEVGQVVMLNYNPDNPKERGFWYDAEISRKRETRTARELYANVVLGDDSLNDCRIIFVDEVFKIERPGE
# modifications: biotin on the AviTag
# notes: Cloned into the vector pMCSG51; also called biotinylated-AviTag-N-UHRF1
# Target: T1, FLAG-C-UHRF1 (containing SRA, RING E3 …)
# Assay: AlphaScreen or HTRF; AlphaScreen: 300 nM biotinylated-His-Avitag-N-UHRF1 on streptavidin donor beads, 300 nM FLAG-C-UHRF1 on anti-FLAG acceptor beads; 50 mM HEPES pH 6.5 (screen) or 50 mM sodium phosphate pH 7 (dose response), 150 mM NaCl, 0.1% Triton X-100, 1 mM DTT; room temperature; inhibition by fragments or histone peptides
# Details: both partners purified
binder,measurement,value
B1,binding result,binds
